Assay results from patent US20210332145A1 (SINGLE CELL TECHNOLOGY, published 2021).

T1: BCMA on cells (293T cells transfected with BCMA; H929, MM.1S and U266 cell lines expressing BCMA) (human, UniProt Q02223 1-184)
T1 construct: H929, MM.1S and U266 carry the native protein; also called B-cell Maturation Antigen; TNFRSF17
T1 sequence: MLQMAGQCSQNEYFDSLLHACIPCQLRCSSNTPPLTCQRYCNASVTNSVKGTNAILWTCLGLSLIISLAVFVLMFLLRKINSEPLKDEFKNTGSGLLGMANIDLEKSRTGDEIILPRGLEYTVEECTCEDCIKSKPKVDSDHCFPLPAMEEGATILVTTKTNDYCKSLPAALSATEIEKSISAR

T2: human BCMA with a His tag (ACROBiosystems, Catalog No.: BCA-H522y) (human)
T2 construct: Bought His-tagged recombinant protein; also called huBCMA-His; Recombinant human BCMA
T2 chain: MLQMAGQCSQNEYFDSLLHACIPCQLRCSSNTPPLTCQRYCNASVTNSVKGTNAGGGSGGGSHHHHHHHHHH

T3: mouse BCMA with a His tag (ACROBiosystems, Catalog No.: BCA-M52H3) (mouse)
T3 construct: Bought His-tagged recombinant protein
T3 chain: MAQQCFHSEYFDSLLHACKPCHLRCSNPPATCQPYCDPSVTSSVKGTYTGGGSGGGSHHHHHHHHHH


What was measured:
[1] = target: T1, BCMA on cells (293T cells transfected …); assay: flow cytometry, 293T cells transfected with BCMA
[2] = target: T1, BCMA on cells (293T cells transfected …); assay: flow cytometry, H929 cells
Procedure: A cell line expressing BCMA, H929, was used to assess binding by anti-BCMA antibodies on the native protein on the cell surface by flow cytometry according to the known art. A subset of anti-human BCMA antibodies were assayed for binding to H929 and the fraction of cells bound the labeled antibody above background defined by control is shown in Table 8.

[3] = target: T1, BCMA on cells (293T cells transfected …); assay: flow cytometry, 293T cells transfected with BCMA, above parental 293T background
[4] = target: T4, cyno BCMA with a His tag (ACROBiosystems, Catalog No.: BCA-052H7) (cyno); assay: ELISA, plate-coated cyno BCMA-His
T4 construct: Bought His-tagged recombinant protein
T4 sequence (chain, as listed by the source limits assumed): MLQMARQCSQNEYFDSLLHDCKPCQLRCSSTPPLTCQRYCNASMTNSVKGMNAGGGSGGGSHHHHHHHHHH
Procedure: (§1) The recombinantly expressed antibodies were used to assess binding activity to BCMA of different species origins by conventional ELISA according to the known art. Recombinant human BCMA, cyno BCMA, and mouse BCMA were coated onto ELISA plates to detect binding at serially diluted concentrations of the anti-BCMA antibody preparations.
(§2) The ability for antibodies of the present disclosure to bind human BCMA was measured with an ELISA assay. For the BCMA binding assay, a 96-well plate (Nunc) is coated with human BCMA with a His tag (ACROBiosystems, Catalog No.: AC108P1-180611F2-Bulk, SEQ ID NO:2) at 0.2 μg/well overnight at 4° C. Wells are blocked for 2 h with blocking buffer (PBS containing 3% bovine serum albumin). Wells are washed three times with PBS containing 0.1% Tween-20. Anti-human BCMA antibodies of the present disclosure or control IgG (100 μL) is then added and incubated at room temperature for 1 h. After washing, the plate is incubated with 100 μL of goat anti-mouse IgG Fcγ Fragment Specific-HRP conjugate (Jackson ImmunoResearch) at room temperature for 1 h. The plates are washed and then incubated with 100 μL of 3,3′,5,5′-tetra-methylbenzidine. The absorbance at 450 nm is read on a microplate reader. The half maximal effective concentration (EC50) is calculated using GraphPad Prism 6 software.
In experiments performed essentially as described above, anti-human BCMA antibodies of the present disclosure bind cyno BCMA with a His tag (ACROBiosystems, Beijing, China, Catalog No.: BCA-052H7, SEQ ID NO:110) with an EC50 values shown in Table 4.

[5] = target: T2, human BCMA with a His tag …; assay: SPR, Biacore T200
Procedure: The binding affinity of select anti-BCMA was measured on a surface plasmon resonance (SPR) instrument, Biacore T200™, against human BCMA by a method known in the art.
In experiments performed essentially as described above, a subset of anti-human BCMA antibodies of the present disclosure bind human BCMA with a His tag (ACROBiosystems, Beijing, China, Catalog No.: BCA-H522y, SEQ ID NO:2) with affinity shown in Table 6.

[6] = target: T2, human BCMA with a His tag …; assay: ELISA, plate-coated human BCMA-His
Procedure: as §1, §2
In experiments performed essentially as described above, anti-human BCMA antibodies of the present disclosure bind human BCMA with a His tag (ACROBiosystems, Beijing, China, Catalog No.: BCA-H522y, SEQ ID NO:2) with an EC50 values shown in Table 3.

[7] = target: T1, BCMA on cells (293T cells transfected …); assay: flow cytometry, H929 cells; remark: listed apart in the source
[8] = target: T3, mouse BCMA with a His tag …; assay: ELISA, plate-coated mouse BCMA-His
Procedure: as §1, §2
In experiments performed essentially as described above, anti-human BCMA antibodies of the present disclosure bind mouse BCMA with a His tag (ACROBiosystems, Beijing, China, Catalog No.: BCA-M52H3, SEQ ID NO:109) with an EC50 values shown in Table 5.

Binder	binding result [1]	Positive (%) [2]	Positive (%) [3]	EC50 [4]	Kd [5]	koff [5]	kon [5]	EC50 [6]	Mean fluorescent intensity [7]	EC50 [8]
SCT-Aa02 (antibody, V domains shown) VH: EVKLLQSGGGLVQPGGSLKLSCAASGIDFSRYWMSWVRRAPGKGLEWIGEINPDSSTINSAPSLEDKFIISRDNAKNTLYLQMSKVRSEDTALYYCASLYYDYERDYAMDYWGQGASVTVSS VL: DIVMTQSQKFMSTSVGDRVSVTCKASQNVGTNVAWYQQKPGQSPKALIYSASYRFSGVPDRFTGSGSGTDFTLTISNVQSEDLAEYFCQQYHSYPFTFGGGTKLEIK	binds									
SCT-Aa17(h/h) (antibody, V domains shown, Full IgG format, chimeric: human IgG1 heavy chain constant region, human kappa light chain constant region) VH: EVQLQQSGPELVKPGASVKMSCKASGYTFTSYVMDWVKQKPGQGLEWIGYINPYNDGTKYNEKFKGKATLTSDKSSSTVYMELSSLTSEDSAVYHCARSDYDYGYAMDYWGQGTSVTVSS VL: DIQMTQSPASLSLSVGETVTITCRASENIYSNLAWYQQKQGNSPQLLVYSATHLADGVPSRFSGSGSGTQYSLKINSLQSEDFGCYYCQHFWGPPWTFGGGTKLEIK		75%	43%	2.17 µg/mL	2.45 nM	0.0132 s⁻¹	5.39e+06 M⁻¹ s⁻¹	0.00356 µg/mL	232	4.33 µg/mL
SCT-Aa13(h/h) (antibody, V domains shown, Full IgG format, chimeric: human IgG1 heavy chain constant region, human kappa light chain constant region) VH: QVQLQQSDAELVKPGASVKISCKVSGYTFTDYTIHWMKQRPEQGLEWIGYIYPRDGSTKYNEKFKGKATLTADKSSSTAYMQLNSLTSEDSAVYFCARWDYEGFDYWGQGTTLTVSS VL: DIVMTQSPATLSVTPGDRVSLSCRASQSISDYLHWYQQKSHESPRLLIKYASQSISGIPSRFSGSGSGSDFTLSINSVEPEDVGVYYCQNGHSFPPTFGSGTKLEIK		96.5%	74.3%	0.131 µg/mL	4.85 nM	0.0157 s⁻¹	3.23e+06 M⁻¹ s⁻¹	0.00268 µg/mL	756	0.019 µg/mL
SCT-Aa06(h/h) (antibody, V domains shown, Full IgG format, chimeric: human IgG1 heavy chain constant region, human kappa light chain constant region) VH: EVQLQQSGPELVKPGNSVKISCKASGYSFTGYFMNWVMQSHGKSLEWIGRINPYNGDTFYNQKFKGKATLTVDKSSSTAHMELRSLTSEDSAVYYCARLDYTNYNSYPMDYWGQGTSVTVSS VL: DIQMTHTTSSLSASLGDRVTISCSASQGISNYLNWYLQKPDGTVKLLIYYTSNLHSGVPSRFSGSGSGTDFSLTISNLQPEDIATYYCQQYSKFPWTFGGGTKLEIK		99.6%	82.8%	0.0976 µg/mL	5.38 nM	0.02 s⁻¹	3.72e+06 M⁻¹ s⁻¹	0.00278 µg/mL	1260	0.0972 µg/mL
SCT-Aa16(h/h) (antibody, V domains shown, Full IgG format, chimeric: human IgG1 heavy chain constant region, human kappa light chain constant region) VH: EVQLQQSGPELVKPGASVKMSCKGSGYTFTNYIMHWVKQKPGQGLEWIGYIIPYNDNTKYNEKFKGKATLTSDKSSSTAYMELSSLTSEDSAVYYCATYEYDVGLDYWGQGTTLTVSS VL: DLQMTQTTSSLSASLGDRVTISCSARQGIVNYLNWYQQKPDGTVKLLIYNTSSLHSGVPSRFSGSGSGTDYSLTISNLEPEDIATYYCQQYSKLPWTFGGGTKLEIK		96.1%	68.1%	0.0778 µg/mL	26.7 nM	0.199 s⁻¹	7.43e+06 M⁻¹ s⁻¹	0.00201 µg/mL	853	1.08 µg/mL
SCT-Aa18(h/h) (antibody, V domains shown, Full IgG format, chimeric: human IgG1 heavy chain constant region, human kappa light chain constant region) VH: EVQLQQSGPELVKPGASVKISCKASGYTFISYVMHWVKQKPGQGLEWIGYIIPYNDGTKYNEKFKGKATLTSDKSSSTAYMELSSLTSEDSAVYYCAKWGNWDEGTWFPYWGQGTLVTVSA VL: DVLMTQTPLSLPVSLGDQASFSCRSSQSIVHSDGNTYLEWYLQKPGQSPKLLIYKISNRFSGVPDRFSGSGSGTDFTLKISRVEAEDLGVYYCFQGSHVPWTFGGGTKLEIK		97%	76.1%	0.0788 µg/mL	12.2 nM	0.0506 s⁻¹	4.15e+06 M⁻¹ s⁻¹	0.00268 µg/mL	875	0.271 µg/mL
